T1: human beta-Klotho (KLB) (human, UniProt Q86Z14 53-997)
T1 construct: bought protein, used as analyte in the off-rate screening; also called human KLB; β-Klotho
T1 sequence (looked up): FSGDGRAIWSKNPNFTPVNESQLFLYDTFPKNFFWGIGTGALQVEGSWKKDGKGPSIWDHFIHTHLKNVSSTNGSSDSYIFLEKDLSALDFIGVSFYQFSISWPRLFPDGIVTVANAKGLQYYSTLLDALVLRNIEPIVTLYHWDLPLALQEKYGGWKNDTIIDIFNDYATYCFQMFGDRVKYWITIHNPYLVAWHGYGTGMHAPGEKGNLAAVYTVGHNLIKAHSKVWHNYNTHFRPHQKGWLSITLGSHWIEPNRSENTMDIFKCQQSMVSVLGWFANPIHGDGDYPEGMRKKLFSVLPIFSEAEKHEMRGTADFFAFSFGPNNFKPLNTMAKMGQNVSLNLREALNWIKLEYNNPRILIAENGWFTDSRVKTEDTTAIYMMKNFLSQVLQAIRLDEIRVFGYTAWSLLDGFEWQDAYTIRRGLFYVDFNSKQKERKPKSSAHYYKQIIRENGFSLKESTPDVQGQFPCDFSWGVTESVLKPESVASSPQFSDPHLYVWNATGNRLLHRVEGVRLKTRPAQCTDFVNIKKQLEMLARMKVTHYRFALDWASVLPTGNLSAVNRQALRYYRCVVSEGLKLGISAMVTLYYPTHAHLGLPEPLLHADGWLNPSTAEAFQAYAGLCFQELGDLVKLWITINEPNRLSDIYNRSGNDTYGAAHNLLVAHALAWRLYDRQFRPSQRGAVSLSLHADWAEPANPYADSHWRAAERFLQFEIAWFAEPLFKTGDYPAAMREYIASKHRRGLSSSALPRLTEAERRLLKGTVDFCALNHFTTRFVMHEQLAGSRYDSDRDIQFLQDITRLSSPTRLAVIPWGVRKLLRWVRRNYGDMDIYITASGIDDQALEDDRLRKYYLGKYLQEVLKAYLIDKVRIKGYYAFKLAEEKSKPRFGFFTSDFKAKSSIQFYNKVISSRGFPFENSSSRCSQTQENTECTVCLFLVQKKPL

B1: 16H7 variant with light chain substitution R53P (antibody, V domains shown)
VH: not shown
VL: SYVLTQPPSVSVAPGQTARITCGGNNIGSESVHWYQQKPGQAPVLVVYDDSDPPSGIPERFSGSNSGNTATLTISRVEAGDEADYYCQVWDGNSDHVVFGGGTKLTVLG
B2: 16H7 variant with light chain substitution R53T (antibody, V domains shown)
VH: not shown
VL: SYVLTQPPSVSVAPGQTARITCGGNNIGSESVHWYQQKPGQAPVLVVYDDSDTPSGIPERFSGSNSGNTATLTISRVEAGDEADYYCQVWDGNSDHVVFGGGTKLTVLG
B3: 16H7 variant with light chain substitution S55G (antibody, V domains shown)
VH: not shown
VL: SYVLTQPPSVSVAPGQTARITCGGNNIGSESVHWYQQKPGQAPVLVVYDDSDRPGGIPERFSGSNSGNTATLTISRVEAGDEADYYCQVWDGNSDHVVFGGGTKLTVLG
B4: 16H7 variant with light chain substitution S55H (antibody, V domains shown)
VH: not shown
VL: SYVLTQPPSVSVAPGQTARITCGGNNIGSESVHWYQQKPGQAPVLVVYDDSDRPHGIPERFSGSNSGNTATLTISRVEAGDEADYYCQVWDGNSDHVVFGGGTKLTVLG
B5: 16H7 variant with light chain substitution S55R (antibody, V domains shown)
VH: not shown
VL: SYVLTQPPSVSVAPGQTARITCGGNNIGSESVHWYQQKPGQAPVLVVYDDSDRPRGIPERFSGSNSGNTATLTISRVEAGDEADYYCQVWDGNSDHVVFGGGTKLTVLG
B6: 16H7 variant with light chain substitution S51V (antibody, V domains shown)
VH: not shown
VL: SYVLTQPPSVSVAPGQTARITCGGNNIGSESVHWYQQKPGQAPVLVVYDDVDRPSGIPERFSGSNSGNTATLTISRVEAGDEADYYCQVWDGNSDHVVFGGGTKLTVLG
B7: 16H7 variant with light chain substitution S55P (antibody, V domains shown)
VH: not shown
VL: SYVLTQPPSVSVAPGQTARITCGGNNIGSESVHWYQQKPGQAPVLVVYDDSDRPPGIPERFSGSNSGNTATLTISRVEAGDEADYYCQVWDGNSDHVVFGGGTKLTVLG
B8: 16H7 variant with light chain substitution S55C (antibody, V domains shown)
VH: not shown
VL: SYVLTQPPSVSVAPGQTARITCGGNNIGSESVHWYQQKPGQAPVLVVYDDSDRPCGIPERFSGSNSGNTATLTISRVEAGDEADYYCQVWDGNSDHVVFGGGTKLTVLG
B9: 16H7 variant with light chain substitution S55F (antibody, V domains shown)
VH: not shown
VL: SYVLTQPPSVSVAPGQTARITCGGNNIGSESVHWYQQKPGQAPVLVVYDDSDRPFGIPERFSGSNSGNTATLTISRVEAGDEADYYCQVWDGNSDHVVFGGGTKLTVLG
B10: 16H7 variant with light chain substitution S51G (antibody, V domains shown)
VH: not shown
VL: SYVLTQPPSVSVAPGQTARITCGGNNIGSESVHWYQQKPGQAPVLVVYDDGDRPSGIPERFSGSNSGNTATLTISRVEAGDEADYYCQVWDGNSDHVVFGGGTKLTVLG
B11: 16H7 variant with light chain substitution S55T (antibody, V domains shown)
VH: not shown
VL: SYVLTQPPSVSVAPGQTARITCGGNNIGSESVHWYQQKPGQAPVLVVYDDSDRPTGIPERFSGSNSGNTATLTISRVEAGDEADYYCQVWDGNSDHVVFGGGTKLTVLG
B12: 16H7 variant with light chain substitution R53S (antibody, V domains shown)
VH: not shown
VL: SYVLTQPPSVSVAPGQTARITCGGNNIGSESVHWYQQKPGQAPVLVVYDDSDSPSGIPERFSGSNSGNTATLTISRVEAGDEADYYCQVWDGNSDHVVFGGGTKLTVLG
B13: 16H7 variant with light chain substitution S51D (antibody, V domains shown)
VH: not shown
VL: SYVLTQPPSVSVAPGQTARITCGGNNIGSESVHWYQQKPGQAPVLVVYDDDDRPSGIPERFSGSNSGNTATLTISRVEAGDEADYYCQVWDGNSDHVVFGGGTKLTVLG
B14: 16H7 variant with light chain substitution S55N (antibody, V domains shown)
VH: not shown
VL: SYVLTQPPSVSVAPGQTARITCGGNNIGSESVHWYQQKPGQAPVLVVYDDSDRPNGIPERFSGSNSGNTATLTISRVEAGDEADYYCQVWDGNSDHVVFGGGTKLTVLG
B15: 16H7 variant with light chain substitution S51E (antibody, V domains shown)
VH: not shown
VL: SYVLTQPPSVSVAPGQTARITCGGNNIGSESVHWYQQKPGQAPVLVVYDDEDRPSGIPERFSGSNSGNTATLTISRVEAGDEADYYCQVWDGNSDHVVFGGGTKLTVLG
B16: 16H7 variant with light chain substitution S55E (antibody, V domains shown)
VH: not shown
VL: SYVLTQPPSVSVAPGQTARITCGGNNIGSESVHWYQQKPGQAPVLVVYDDSDRPEGIPERFSGSNSGNTATLTISRVEAGDEADYYCQVWDGNSDHVVFGGGTKLTVLG
B17: 16H7 variant with light chain substitution R53Q (antibody, V domains shown)
VH: not shown
VL: SYVLTQPPSVSVAPGQTARITCGGNNIGSESVHWYQQKPGQAPVLVVYDDSDQPSGIPERFSGSNSGNTATLTISRVEAGDEADYYCQVWDGNSDHVVFGGGTKLTVLG
B18: 16H7 variant with light chain substitution S51A (antibody, V domains shown)
VH: not shown
VL: SYVLTQPPSVSVAPGQTARITCGGNNIGSESVHWYQQKPGQAPVLVVYDDADRPSGIPERFSGSNSGNTATLTISRVEAGDEADYYCQVWDGNSDHVVFGGGTKLTVLG
B19: 16H7 variant with light chain substitution S55L (antibody, V domains shown)
VH: not shown
VL: SYVLTQPPSVSVAPGQTARITCGGNNIGSESVHWYQQKPGQAPVLVVYDDSDRPLGIPERFSGSNSGNTATLTISRVEAGDEADYYCQVWDGNSDHVVFGGGTKLTVLG
B20: 16H7 variant with light chain substitution S51C (antibody, V domains shown)
VH: not shown
VL: SYVLTQPPSVSVAPGQTARITCGGNNIGSESVHWYQQKPGQAPVLVVYDDCDRPSGIPERFSGSNSGNTATLTISRVEAGDEADYYCQVWDGNSDHVVFGGGTKLTVLG
B21: 16H7 variant with light chain substitution S55I (antibody, V domains shown)
VH: not shown
VL: SYVLTQPPSVSVAPGQTARITCGGNNIGSESVHWYQQKPGQAPVLVVYDDSDRPIGIPERFSGSNSGNTATLTISRVEAGDEADYYCQVWDGNSDHVVFGGGTKLTVLG
B22: 16H7 variant with light chain substitution S55D (antibody, V domains shown)
VH: not shown
VL: SYVLTQPPSVSVAPGQTARITCGGNNIGSESVHWYQQKPGQAPVLVVYDDSDRPDGIPERFSGSNSGNTATLTISRVEAGDEADYYCQVWDGNSDHVVFGGGTKLTVLG

How the values were obtained:
[1] = target: human FGFR1c/KLB receptor complex on iLite FGF21 Assay Ready Cells (human, UniProt P11362 22-822; Q86Z14 1-1044); assay: cell-based or functional assay; on Mean E max (%): reference of the scale not given here
Chain of human FGFR1c/KLB receptor complex on iLite FGF21 Assay Ready Cells (P11362 22-822, chain 1 of 2): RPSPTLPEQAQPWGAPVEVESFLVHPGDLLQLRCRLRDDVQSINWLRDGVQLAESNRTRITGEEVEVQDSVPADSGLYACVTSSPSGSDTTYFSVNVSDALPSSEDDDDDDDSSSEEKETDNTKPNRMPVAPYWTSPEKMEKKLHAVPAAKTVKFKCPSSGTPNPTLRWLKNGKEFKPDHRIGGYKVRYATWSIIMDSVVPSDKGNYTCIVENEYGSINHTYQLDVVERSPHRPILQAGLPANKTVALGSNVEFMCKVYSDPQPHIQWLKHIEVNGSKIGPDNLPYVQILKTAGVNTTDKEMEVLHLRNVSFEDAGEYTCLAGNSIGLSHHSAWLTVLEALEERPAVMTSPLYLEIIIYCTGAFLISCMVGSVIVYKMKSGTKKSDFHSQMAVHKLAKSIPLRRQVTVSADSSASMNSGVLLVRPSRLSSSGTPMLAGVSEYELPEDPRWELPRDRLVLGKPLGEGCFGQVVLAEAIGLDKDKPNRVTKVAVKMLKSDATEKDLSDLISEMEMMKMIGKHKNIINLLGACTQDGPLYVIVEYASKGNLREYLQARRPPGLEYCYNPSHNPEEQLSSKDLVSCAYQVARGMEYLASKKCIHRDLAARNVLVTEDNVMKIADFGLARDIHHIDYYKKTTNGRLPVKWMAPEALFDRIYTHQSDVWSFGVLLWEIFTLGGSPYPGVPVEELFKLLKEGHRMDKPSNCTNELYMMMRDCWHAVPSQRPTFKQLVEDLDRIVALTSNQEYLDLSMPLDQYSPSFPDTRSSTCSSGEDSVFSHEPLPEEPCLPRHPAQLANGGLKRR
Chain of human FGFR1c/KLB receptor complex on iLite FGF21 Assay Ready Cells (Q86Z14 whole entry, chain 2 of 2): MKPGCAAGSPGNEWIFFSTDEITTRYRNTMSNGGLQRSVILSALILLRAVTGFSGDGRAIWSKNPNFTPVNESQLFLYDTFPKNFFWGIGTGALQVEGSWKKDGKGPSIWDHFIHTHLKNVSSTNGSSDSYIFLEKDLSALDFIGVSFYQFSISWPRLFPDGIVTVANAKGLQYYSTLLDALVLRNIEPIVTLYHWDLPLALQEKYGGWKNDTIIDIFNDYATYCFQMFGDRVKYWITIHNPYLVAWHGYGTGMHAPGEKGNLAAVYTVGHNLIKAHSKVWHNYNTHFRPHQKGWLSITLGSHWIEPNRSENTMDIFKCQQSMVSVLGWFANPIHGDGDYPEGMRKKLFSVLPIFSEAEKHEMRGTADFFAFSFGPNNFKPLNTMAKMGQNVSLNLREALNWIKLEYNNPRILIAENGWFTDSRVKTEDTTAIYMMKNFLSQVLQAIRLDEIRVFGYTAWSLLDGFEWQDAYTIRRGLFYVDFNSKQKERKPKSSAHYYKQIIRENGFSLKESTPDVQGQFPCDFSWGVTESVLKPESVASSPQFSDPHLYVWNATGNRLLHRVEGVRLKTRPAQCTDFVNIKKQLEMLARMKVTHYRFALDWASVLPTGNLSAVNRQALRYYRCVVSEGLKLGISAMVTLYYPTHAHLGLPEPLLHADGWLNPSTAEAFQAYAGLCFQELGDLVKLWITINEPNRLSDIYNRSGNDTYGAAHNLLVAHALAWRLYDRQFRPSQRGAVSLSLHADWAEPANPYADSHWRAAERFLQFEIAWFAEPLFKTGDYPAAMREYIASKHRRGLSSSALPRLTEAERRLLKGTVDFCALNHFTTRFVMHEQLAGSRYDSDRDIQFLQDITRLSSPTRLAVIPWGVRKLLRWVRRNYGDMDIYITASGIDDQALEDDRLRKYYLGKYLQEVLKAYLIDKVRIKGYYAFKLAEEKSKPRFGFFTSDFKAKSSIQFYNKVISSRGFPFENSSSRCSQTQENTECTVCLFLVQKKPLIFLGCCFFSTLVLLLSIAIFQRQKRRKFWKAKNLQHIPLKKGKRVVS

human beta-Klotho (KLB) = target: T1, human beta-Klotho (KLB); assay: BLI off-rate screening, mAb captured, KLB analyte;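 further: Off-rate taken from the dissociation phase, biosensors held in D-PBS with 0.1% BSA over 1800 s, antibody supernatants diluted to 25 µg/mL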

| Binder | Mean E max (%) [1] | Mean EC50 [1] | koff (human beta-Klotho (KLB)) |
| --- | --- | --- | --- |
| B1 | 92% | 126 pM | 0.00028 s⁻¹ |
| B2 | 109% | 134 pM | 8.7e-05 s⁻¹ |
| B3 | 104% | 128 pM | 3.5e-05 s⁻¹ |
| B4 | 111% | 122 pM | 4e-06 s⁻¹ |
| B5 | 100% | 143 pM | 4.9e-05 s⁻¹ |
| B6 | 110% | 139 pM | 2e-05 s⁻¹ |
| B7 | 99% | 109 pM | 3.2e-05 s⁻¹ |
| B8 | 91% | 244 pM | 6.3e-05 s⁻¹ |
| B9 | 97% | 95 pM | 2.4e-05 s⁻¹ |
| B10 | 104% | 129 pM | 0.0001 s⁻¹ |
| B11 | 100% | 109 pM | 1.3e-05 s⁻¹ |
| B12 | 105% | 113 pM | 0.00029 s⁻¹ |
| B13 | 97% | 98 pM | 3.7e-05 s⁻¹ |
| B14 | 111% | 141 pM | 1.7e-05 s⁻¹ |
| B15 | 107% | 108 pM | 7.2e-05 s⁻¹ |
| B16 | 106% | 141 pM | 3.8e-05 s⁻¹ |
| B17 | 100% | 131 pM | 0.00024 s⁻¹ |
| B18 | 109% | 123 pM | 4.7e-05 s⁻¹ |
| B19 | 97% | 126 pM | 8.4e-05 s⁻¹ |
| B20 | 112% | 147 pM | 4.7e-05 s⁻¹ |
| B21 | 110% | 133 pM | 1.3e-05 s⁻¹ |
| B22 | 109% | 146 pM | 3.6e-05 s⁻¹ |

Source: patent publication US20220010021A1 (Sanofi, published 2022)
